Values of other authors as cited in PMC11853434.
pKd: −log10 of the molar value. Where two headings read alike, the source gives them in different places.

Legend:
[1] = molecular target: SARS-CoV-2 spike RBD RBD (Severe acute respiratory syndrome coronavirus 2) (UniProt P0DTC2)
[2] = molecular target: SARS-CoV-2 spike RBD RBD (Severe acute respiratory syndrome coronavirus 2) (UniProt P0DTC2); remark: listed apart in the source

For casirivimab, the pKd [1] is given as 8.47.

For imdevimab, the pKd [2] is listed as 7.34.
